The target of the experiment is T1, histone H4 of Xenopus laevis, in the 29N59 nucleosome (Xenopus laevis, UniProt P62799 1-103).
T1 construct: histone H4, Xenopus laevis; Stood within the nucleosome in the cross-linking
Nature of the experiment: cross-linking; BS3 cross-linking with mass spectrometry (CX-MS): 35 nM FLAG tagged SWI/SNF, 35 nM 29-N-59 nucleosomes, 200 nM Gal4-VP16, 115 μM BS3, room temperature, 2 h. Particulars: both partners purified.

B1: Snf2, catalytic subunit of yeast SWI/SNF, with a C-terminal double FLAG epitope (enzyme)
chain: MNIPQRQFSNEEVNRCYLRWQHLRNEHGMNAPSVPEFIYLTKVLQFAAKQRQELQMQRQQQGISGSQQNIVPNSSDQAELPNNASSHISASASPHLAPNMQLNGNETFSTSAHQSPIMQTQMPLNSNGGNNMLPQRQSSVGSLNATNFSPTPANNGENAAEKPDNSNHNNLNLNNSELQPQNRSLQEHNIQDSNVMPGSQINSPMPQQAQMQQAQFQAQQAQQAQQAQQAQQAQARLQQGRRLPMTMFTAEQSELLKAQITSLKCLVNRKPIPFEFQAVIQKSINHPPDFKRMLLSLSEFARRRQPTDQNNQSNLNGGNNTQQPGTNSHYNNTNTDNVSGLTRNAPLDSKDENFASVSPAGPSSVHNAKNGTLDKNSQTVSGTPITQTESKKEENETISNVAKTAPNSNKTHTEQNNPPKPQKPVPLNVLQDQYKEGIKVVDIDDPDMMVDSFTMPNISHSNIDYQTLLANSDHAKFTIEPGVLPVGIDTHTATDIYQTLIALNLDTTVNDCLDKLLNDECTESTRENALYDYYALQLLPLQKAVRGHVLQFEWHQNSLLTNTHPNFLSKIRNINVQDALLTNQLYKNHELLKLERKKTEAVARLKSMNKSAINQYNRRQDKKNKRLKFGHRLIATHTNLERDEQKRAEKKAKERLQALKANDEEAYIKLLDQTKDTRITHLLRQTNAFLDSLTRAVKDQQKYTKEMIDSHIKEASEEVDDLSMVPKMKDEEYDDDDDNSNVDYYNVAHRIKEDIKKQPSILVGGTLKDYQIKGLQWMVSLFNNHLNGILADEMGLGKTIQTISLLTYLYEMKNIRGPYLVIVPLSTLSNWSSEFAKWAPTLRTISFKGSPNERKAKQAKIRAGEFDVVLTTFEYIIKERALLSKVKWVHMIIDEGHRMKNAQSKLSLTLNTHYHADYRLILTGTPLQNNLPELWALLNFVLPKIFNSVKSFDEWFNTPFANTGGQDKIELSEEETLLVIRRLHKVLRPFLLRRLKKDVEKELPDKVEKVVKCKMSALQQIMYQQMLKYRRLFIGDQNNKKMVGLRGFNNQIMQLKKICNHPFVFEEVEDQINPTRETNDDIWRVAGKFELLDRILPKLKATGHRVLIFFQMTQIMDIMEDFLRYINIKYLRLDGHTKSDERSELLRLFNAPDSEYLCFILSTRAGGLGLNLQTADTVIIFDTDWNPHQDLQAQDRAHRIGQKNEVRILRLITTNSVEEVILERAYKKLDIDGKVIQAGKFDNKSTSEEQEALLRSLLDAEEERRKKRESGVEEEEELKDSEINEILARNDEEMAVLTRMDEDRSKKEEELGVKSRLLEKSELPDIYSRDIGAELKREESESAAVYNGRGARERKTATYNDNMSEEQWLRQFEVSDDEKNDKQARKQRTKKEDKSEAIDGNGEIKGENIDADNDGPRINNISAEDRADTDLAMNDDDFLSKKRKAGRPRGRPKKVKLEGSENSEPPALESSPVTGDNSPSEDFMDIPKPRTAGKTSVKSARTSTRGRGRGRGRGRGRGRGRGRPPKARNGLDYVRTPAAATSPIDIREKVAKQALDLYHFALNYENEAGRKLSDIFLSKPSKALYPDYYMIIKYPVAFDNINTHIETLAYNSLKETLQDFHLIFSNARIYNTEGSVVYEDSLELEKVVTKKYCEIMGDNSQLDFTEFDEQYGTRPLVLPPVVTSSVAESFTDEADSSMTEASV
notes: Snf2, catalytic subunit of SWI/SNF, S. cerevisiae; also called WT; SNF2-2FLAG; source: S. cerevisiae, SNF2-2FLAG in a Δsnf2 strain; not shown: FLAG x2, C-terminal, kept
Turning to B1, the binding result is recorded as “binds”.

The record behind these values is paper PMC10403523, “The AT-hook is an evolutionarily conserved auto-regulatory domain of SWI/SNF required for cell lineage priming” (Nature Communications, 2023).
